Results published in the RNAGym collection of RNA variant scans (doi:10.1073/pnas.2313332121).
This sample holds only a part of the variants without activity.

B1: TPR 5TU (parent)
chain: GGAUCUUCUCGAUCUAACAAAAAAGACAAAUCUGCCACAAAGCUUGAGAGCAUCUUCGGAUGCAGAGGCGGCAGCCUUCGGUGGCGCGAUAGCGCCAACGUUCUCAACUAUGACACGCAAAACGCGUGCUCCGUUGAAUGGAGUUUAUCAUG

Variants of: B1
Test: polymerase ribozyme fitness, log enrichment relative to wild type (log ratio); higher = more active; in vitro selection for triplet polymerase activity
Procedure, shortened: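 Mutant libraries for each subunit of a heterodimeric triplet polymerase ribozyme were made by PCR and then transcribed. Each library underwent one round of in vitro selection in triplicate: annealing with a biotinylated primer, the partner subunit and triplets, frozen incubation at −7 °C, gel excision of extended constructs, streptavidin-bead capture and RT-PCR. Input and output libraries were Illumina-sequenced, and only genotypes with ≥10 input reads and ≥1 read per output were kept. Fitness is the logarithm, base 2, of genotype enrichment over wild-type enrichment, computed from inverse-variance-weighted replicate averages.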

| Variant | polymerase ribozyme fitness (log ratio) |
| --- | --- |
| C43U U61G G94U C116U U144G C149G | ≤ -4.2 |
| G42C U61A G88A C95U U104G | ≤ -4.2 |
| C43G U44A G58A G88U C95U U135G | ≤ -4.2 |
| A40U G141U | 0.96 |
| U44A C116G | -4.19 |
| A40G A97G | -1.8 |
| A40C U134G A142G U145A | -3.46 |
| A41C C93U C123U | -1.59 |
| A40U U55G G58A A97G | -0.0754 |
| A41G U45A C54G G92U | -2.74 |
| G42C A66C | ≤ -4.2 |
| G42U A64C C79U G88A A106G A107C A147U | ≤ -4.2 |
| G42C G86U U109G G141U | ≤ -4.2 |
| A40U G88A | -3.65 |
| A41C A49C C75A C95A | ≤ -4.2 |
| A40U C95U | -1.07 |
| A40U C87U C105U G136U | -2.13 |
| A41C C96U A107U C131A G133A U146C | ≤ -4.2 |
| A40U G152U | -3.71 |
| A41U A52G A107U G140U C149A | ≤ -4.2 |
| A40C U55G C85U | 0.238 |
| C43A U61A U127C C132U U145G | ≤ -4.2 |
| A41C C87G C114U | ≤ -4.2 |
| A40U U56A C75G | -3.97 |

| Variant | polymerase ribozyme fitness (log ratio) |
| --- | --- |
| A41U U145A | -0.141 |
| G42C U101G G136U | ≤ -4.2 |
| A41C G83U | -0.922 |
| U44A C76A A91G | ≤ -4.2 |
| A40C G84A G94A C131U U139A | -4.09 |
| A40U A60G A66U A73G A91G C99G | ≤ -4.2 |
| A41G C85A U130G G143U A147G | ≤ -4.2 |
| A41U C51A G86C G88C | ≤ -4.2 |
| A41U G86U C125U U127G | -4.16 |
| A41C C43U C125U | ≤ -4.2 |
| C43U U53G | ≤ -4.2 |
| A41C A47C G88U A97U | -4.03 |
| A40C U55G G84C C96U C103U C118U | -3.51 |
| U44A A49U C72G C79G G92U A150G | ≤ -4.2 |
| C43U G74C C93G U146A | ≤ -4.2 |
| C43U C54U U61A A64C G84U U127A C131G A142G | ≤ -4.2 |
| C43U U61A G80A G94U A106C A122U | ≤ -4.2 |
| A40U C105G | -0.905 |
| A40U U55A G58C C85G A119U | -2.59 |
| A40U G59C C132U U145G | -1.94 |
| G42A C96A A122G A138G U145G | ≤ -4.2 |
| A40U C63A C72A C76A C103G | ≤ -4.2 |
| G42A U56A C95U U111G | -4 |
| G42A A47C U55A C85U | ≤ -4.2 |

| Variant | polymerase ribozyme fitness (log ratio) |
| --- | --- |
| A40U U55C U78G U151A | ≤ -4.2 |
| G42C U44A U90G G140U A147U | ≤ -4.2 |
| C43U C72U G92U | ≤ -4.2 |
| G42C A47G G88C | ≤ -4.2 |
| A41U C114A | -4.16 |
| A40U G92A A98U U145G A147U | -4.09 |
| A40U A89C | -0.129 |
| G42A U56A G67U G94A | ≤ -4.2 |
| A41C G59A G86U | -2.6 |
| A41C C43A A60G | ≤ -4.2 |
| G42C A89G G92A G126U G133A | ≤ -4.2 |
| A41G G94C | 0.425 |
| A41U G58A A147U | 0.803 |
| A41U C105G | -1.73 |
| U44A C79U A89G U104A A107G | ≤ -4.2 |
| C43G G88A C95U C105A | ≤ -4.2 |
| A40U G83C C96A G152A | -3.95 |
| A41G G50C C93G C103U C123A U127C | ≤ -4.2 |
| A41U G80U U101C | -4.09 |
| A40U U130A | -3.96 |
| A41U G71A G83C G84U U145C A147U | ≤ -4.2 |
| C43U C63U A73C U78A G84U U90G C93U A119U A142U | ≤ -4.2 |
| A41G G88U | -3.82 |
| A41U G88A C95G A106C A120G | ≤ -4.2 |

| Variant | polymerase ribozyme fitness (log ratio) |
| --- | --- |
| G42U G50A C118U A122C | ≤ -4.2 |
| C43U A89U G94U C105G C132A U151C | ≤ -4.2 |
| A40U G92C A147C | -0.761 |
| C43G A49C C51U G62A G88A A91G C125U A137G | ≤ -4.2 |
| C43U G83U A120G | ≤ -4.2 |
| C43G U55A C96A A98C A121U | ≤ -4.2 |
| A40G U56A G67A G83A | ≤ -4.2 |
| G42A A47C C85G C96G C116A A147U | ≤ -4.2 |
| A41U A49C C96G A113G U135C C149U | ≤ -4.2 |
| A41G C76U C93G A106G A122G C129A G141U | ≤ -4.2 |
| A40U C85U | -0.107 |
| C43G C95U C96A | -4.15 |
| A40U U56A | -0.0589 |
| G42C U53A C79U C85G A89U C125U | ≤ -4.2 |
| A41C C51U | -0.722 |
| A41G C76U G84U C85A A97U G100A G140U | ≤ -4.2 |
| C43G A49C C76A G84A C105G | ≤ -4.2 |
| G42A C114G G133U A150C | ≤ -4.2 |
| A41C G143A | -1.42 |
| A41C G143C | -2.56 |
| G42U A60G U139C U148A | -4.08 |
| A40U U82A C95G | -1.43 |
| U44A C54A U77A G92C C118A A120G G136C G140A | ≤ -4.2 |
| G42U C85A C99U C108G A110G | ≤ -4.2 |

| Variant | polymerase ribozyme fitness (log ratio) |
| --- | --- |
| A41C A52G G86U | -2.67 |
| U44A C131G | ≤ -4.2 |
| A40U C75U C95U A98U G140A | -3.39 |
| G42C C51G U56A G83A C105U A122U U148A | ≤ -4.2 |
| A41G C57A G59A G68U | ≤ -4.2 |
| U44A G50A U77A U78A C93G A115C G133A G141A | -4.14 |
| C43U U82G U101G | -4.04 |
| A40U A60G A89U U134C | -0.16 |
| A41U U82C C87U C125G G126C U144G | -2.6 |
| A41U U44A G65C C85G G143U | ≤ -4.2 |
| A41C U127G G136U G141U | ≤ -4.2 |
| A40C U55A A107G A142G | ≤ -4.2 |
| A40U C43U G70A U78G C87A A147G | ≤ -4.2 |
| G42U G80A U104C | ≤ -4.2 |
| A40U C95U G124C G133U | ≤ -4.2 |
| A40G C54U C96U G141U | -2.2 |
| A40U G92A A120U C132A G141C | ≤ -4.2 |
| A40G C93U C99U | -4.16 |
| A41C G84A | -0.601 |
| A40U A120U G133C | -1.72 |
| G42C C43U C54U A98G A120G | ≤ -4.2 |
| A40U C95U C129A U134C | -3.65 |
| C43G A49C G68C C72U A97U | ≤ -4.2 |
| A41U G62C G136U | -3.69 |

| Variant | polymerase ribozyme fitness (log ratio) |
| --- | --- |
| C43A G94C G143U | ≤ -4.2 |
| A41C U101G | -0.344 |
| A40G A64U U134G A142C | ≤ -4.2 |
| A40G G58C G94A G141A | -3.65 |
| A41U C95U A98C | -1.48 |
| A40U G70C C79G A106G U135C U145G A150C | ≤ -4.2 |
| A40C G59C C63A G65U C87A C95U C125A G126U | ≤ -4.2 |
| G42A G50A C57U G67C C79U G83U C93U | ≤ -4.2 |
| A40G C85G A89G | ≤ -4.2 |
| A40U G86U C93U C149U | -3.56 |
| A41G U44G C75A G92A U102A U148C | ≤ -4.2 |
| U44A G48C G59A U82C C116G C123U U134C | ≤ -4.2 |
| C43G C57A A60U G141C | -4.18 |
| A40G G80C U90G | ≤ -4.2 |
| G42U C57A | ≤ -4.2 |
| A41U C51G G58U U61A G68A C96A A97C U102C | ≤ -4.2 |
| A40G A49G | -3.58 |
| A41U G80A A97U | -1.76 |
| A40U G94A G126A | -0.19 |
| C43U A47C U56A U78G C87G | ≤ -4.2 |
| A40C U55G G59C C75A U82G C96G U111G U148A A150C | ≤ -4.2 |
| A41C G50A G86A A98G | -3.62 |
| A40C U53A A110C | -4.04 |
| G42C U148C | ≤ -4.2 |

| Variant | polymerase ribozyme fitness (log ratio) |
| --- | --- |
| A41U U144G | 0.164 |
| A41C C125G | -0.815 |
| A41U G80A | -0.78 |
| U44A G50C | ≤ -4.2 |
| C43A G50A A106G | ≤ -4.2 |
| A40U A60C C72U G84U | -2.77 |
| A41U G84C C103G | ≤ -4.2 |
| A41U G140A | -3.78 |
| A41C C43A A91C C99U A113U | ≤ -4.2 |
| A41C C76U G81A A110C | ≤ -4.2 |
| G42A A64G U102G | ≤ -4.2 |
| A41G U56A C79U U82G C85U A122G C129A G136U | ≤ -4.2 |
| U44A A73U C105G A120G | ≤ -4.2 |
| A41C C85U | -1.29 |
| C43G G80U G84A C93A U134C | ≤ -4.2 |
| G42A G86A | -3.97 |
| G42A G94U | ≤ -4.2 |
| U44A C93U C99A U111G A138G G152U | -3.36 |
| A41U A60U U144G | -0.464 |
| A41C U53A G92U | -1.22 |
| A41U G92U | -1.05 |
| A40C G50U C69G C116U | -3.24 |
| C43A U44A A91U G141U A150C | ≤ -4.2 |
